Laboratory results published in patent publication US20210121563A1 (Novartis, published 2021).

What was measured:
[1] = target: T1, Programmed Death 1 (PD-1) (UniProt Q15116 25-288, limits assumed); assay: rank of the clone in the competition binding assay with labeled murine mAb BAP049, 2nd experiment; higher number = worse
[2] = target: T1, Programmed Death 1 (PD-1); assay: rank of the clone among the 16 humanized clones by FACS binding data; higher number = worse
[3] = target: T1, Programmed Death 1 (PD-1); assay: rank of the clone in the competition binding assay with labeled murine mAb BAP049, 1st experiment; higher number = worse
[4] = target: T1, Programmed Death 1 (PD-1); assay: FACS blocking of ligand-Ig binding to PD-1, MFI of bound ligand; ligand by the legend paragraph 125 'PD-L1-Ig and PD-L2-Ig' (no ligand named on the sheet; FIG. 8B is PD-L2-Ig, so most likely PD-L1-Ig); cells not named

T1 sequence (Q15116 25-288 limits assumed): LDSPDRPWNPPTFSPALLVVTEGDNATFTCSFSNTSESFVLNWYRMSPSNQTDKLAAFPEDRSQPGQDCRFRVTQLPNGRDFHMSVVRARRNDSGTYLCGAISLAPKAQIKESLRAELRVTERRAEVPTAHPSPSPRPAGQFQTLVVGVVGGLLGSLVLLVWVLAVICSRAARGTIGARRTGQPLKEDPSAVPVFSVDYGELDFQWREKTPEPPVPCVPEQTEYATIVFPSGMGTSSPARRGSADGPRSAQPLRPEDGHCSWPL

| Binder | Competition Binding, 2nd exp. (rank) [1] | Ranking, FACS data [2] | Competition Binding, 1st exp. (rank) [3] | IC50 (read off the curve) [4] |
| --- | --- | --- | --- | --- |
| BAP049-hum02 (antibody, human IgG4 S228P, kappa, V domains shown, also called Clone No. 2) VH: EVQLVQSGAEVKKPGESLRISCKGSGYTFTTYWMHWVRQATGQGLEWMGNIYPGTGGSNFDEKFKNRVTITADKSTSTAYMELSSLRSEDTAVYYCTRWTTGTGAYWGQGTTVTVSS VL: DIQMTQSPSSLSASVGDRVTITCKSSQSLLDSGNQKNFLTWYQQKPGQAPRLLIYWASTRESGIPPRFSGSGYGTDFTLTINNIESEDAAYYFCQNDYSYPYTFGQGTKVEIKR | 2 | 6 | 3 | – |
| BAP049-hum12 (antibody, human IgG4 S228P, kappa, V domains shown, also called Clone No. 12) VH: EVQLVQSGAEVKKPGESLRISCKGSGYTFTTYWMHWVRQATGQGLEWMGNIYPGTGGSNFDEKFKNRVTITADKSTSTAYMELSSLRSEDTAVYYCTRWTTGTGAYWGQGTTVTVSS VL: DIQMTQSPSSLSASVGDRVTITCKSSQSLLDSGNQKNFLTWYLQKPGQSPQLLIYWASTRESGVPSRFSGSGSGTDFTFTISSLEAEDAATYYCQNDYSYPYTFGQGTKVEIKR | 16 | 3 | 8 | – |
| Chi mAb (Tyr) (antibody, human IgG4 S228P, kappa, V domains shown, also called BAP049-chi-Y; Chi (Tyr)) VH: QVQLQQSGSELVRPGASVKLSCKASGYTFTTYWMHWVRQRPGQGLEWIGNIYPGTGGSNFDEKFKNRTSLTVDTSSTTAYMHLASLTSEDSAVYYCTRWTTGTGAYWGQGTTVTVSS VL: DIVMTQSPSSLTVTAGEKVTMSCKSSQSLLDSGNQKNFLTWYQQKPGQPPKLLIFWASTRESGVPDRFTGSGSVTDFTLTISSVQAEDLAVYYCQNDYSYPYTFGQGTKVEIKR | – | – | – | ~0.8 µg/mL |
| Mu mAb (antibody, V domains shown, also called murine anti-PD-1 mAb BAP049; Mu mAb control) VH: QVQLQQSGSELVRPGASVKLSCKASGYTFTTYWMHWVRQRPGQGLEWIGNIYPGTGGSNFDEKFKNRTSLTVDTSSTTAYMHLASLTSEDSAVYYCTRWTTGTGAYWGQGTLVTVSA VL: DIVMTQSPSSLTVTAGEKVTMSCKSSQSLLDSGNQKNFLTWYQQKPGQPPKLLIFWASTRESGVPDRFTGSGSVTDFTLTISSVQAEDLAVYYCQNDYSYPCTFGGGTKLEIK | – | – | – | ~0.6 µg/mL |
| BAP049-hum10 (antibody, human IgG4 S228P, kappa, also called humanized BAP049 clone hum10) heavy: not shown light: EIVLTQSPATLSLSPGERATLSCKSSQSLLDSGNQKNFLTWYQQKPGQAPRLLIYWASTRESGVPSRFSGSGSGTDFTFTISSLEAEDAATYYCQNDYSYPYTFGQGTKVEIKRTVAAPSVFIFPPSDEQLKSGTASVVCLLNNFYPREAKVQWKVDNALQSGNSQESVTEQDSKDSTYSLSSTLTLSKADYEKHKVYACEVTHQGLSSPVTKSFNRGEC | > 4 | 7 | 6 | – |
| BAP049-hum15 (antibody, human IgG4 S228P, kappa, also called Clone No. 15) heavy: not shown light: EIVLTQSPDFQSVTPKEKVTITCKSSQSLLDSGNQKNFLTWYQQKPGQAPRLLIYWASTRESGVPSRFSGSGSGTDFTFTISSLEAEDAATYYCQNDYSYPYTFGQGTKVEIKRTVAAPSVFIFPPSDEQLKSGTASVVCLLNNFYPREAKVQWKVDNALQSGNSQESVTEQDSKDSTYSLSSTLTLSKADYEKHKVYACEVTHQGLSSPVTKSFNRGEC | 15 | 6 | 7 | – |
| BAP049-hum11 (antibody, human IgG4 S228P, kappa, also called humanized BAP049 clone hum11) heavy: not shown light: EIVLTQSPATLSLSPGERATLSCKSSQSLLDSGNQKNFLTWYQQKPGQAPRLLIYWASTRESGVPSRFSGSGSGTDFTFTISSLEAEDAATYYCQNDYSYPYTFGQGTKVEIKRTVAAPSVFIFPPSDEQLKSGTASVVCLLNNFYPREAKVQWKVDNALQSGNSQESVTEQDSKDSTYSLSSTLTLSKADYEKHKVYACEVTHQGLSSPVTKSFNRGEC | > 4 | 6 | 4 | – |
| BAP049-hum05 (antibody, human IgG4 S228P, kappa, V domains shown, also called humanized BAP049 clone hum05) VH: EVQLVQSGAEVKKPGESLRISCKGSGYTFTTYWMHWVRQATGQGLEWMGNIYPGTGGSNFDEKFKNRVTITADKSTSTAYMELSSLRSEDTAVYYCTRWTTGTGAYWGQGTTVTVSS VL: EIVLTQSPATLSLSPGERATLSCKSSQSLLDSGNQKNFLTWYQQKPGKAPKLLIYWASTRESGVPSRFSGSGSGTDFTFTISSLQPEDIATYYCQNDYSYPYTFGQGTKVEIKR | > 4 | 5 | 5 | – |
| BAP049-hum06 (antibody, human IgG4 S228P, kappa, also called Clone No. 6) heavy: not shown light: DIVMTQTPLSLPVTPGEPASISCKSSQSLLDSGNQKNFLTWYQQKPGQAPRLLIYWASTRESGVPSRFSGSGSGTDFTFTISSLEAEDAATYYCQNDYSYPYTFGQGTKVEIKRTVAAPSVFIFPPSDEQLKSGTASVVCLLNNFYPREAKVQWKVDNALQSGNSQESVTEQDSKDSTYSLSSTLTLSKADYEKHKVYACEVTHQGLSSPVTKSFNRGEC | 3 | 1 | 7 | – |
| BAP049-hum07 (antibody, human IgG4 S228P, kappa, also called Clone No. 7) heavy: not shown light: EIVLTQSPATLSLSPGERATLSCKSSQSLLDSGNQKNFLTWYQQKPGKAPKLLIYWASTRESGVPSRFSGSGSGTDFTFTISSLEAEDAATYYCQNDYSYPYTFGQGTKVEIKRTVAAPSVFIFPPSDEQLKSGTASVVCLLNNFYPREAKVQWKVDNALQSGNSQESVTEQDSKDSTYSLSSTLTLSKADYEKHKVYACEVTHQGLSSPVTKSFNRGEC | > 4 | 4 | 7 | – |
| BAP049-hum04 (antibody, human IgG4 S228P, kappa, V domains shown, also called Clone No. 4) VH: EVQLVQSGAEVKKPGESLRISCKGSGYTFTTYWMHWIRQSPSRGLEWLGNIYPGTGGSNFDEKFKNRFTISRDNSKNTLYLQMNSLRAEDTAVYYCTRWTTGTGAYWGQGTTVTVSS VL: EIVLTQSPATLSLSPGERATLSCKSSQSLLDSGNQKNFLTWYQQKPGKAPKLLIYWASTRESGVPSRFSGSGSGTDFTFTISSLQPEDIATYYCQNDYSYPYTFGQGTKVEIKR | 15 | 14 | 15 | – |
| BAP049-hum08 (antibody, human IgG4 S228P, kappa, also called humanized BAP049 clone hum08) heavy: not shown light: EIVLTQSPDFQSVTPKEKVTITCKSSQSLLDSGNQKNFLTWYQQKPGQAPRLLIYWASTRESGVPSRFSGSGSGTDFTFTISSLEAEDAATYYCQNDYSYPYTFGQGTKVEIKRTVAAPSVFIFPPSDEQLKSGTASVVCLLNNFYPREAKVQWKVDNALQSGNSQESVTEQDSKDSTYSLSSTLTLSKADYEKHKVYACEVTHQGLSSPVTKSFNRGEC | 4 | 7 | 7 | – |
| BAP049-hum01 (antibody, human IgG4 S228P, kappa, V domains shown, also called humanized BAP049 clone hum01) VH: EVQLVQSGAEVKKPGESLRISCKGSGYTFTTYWMHWVRQATGQGLEWMGNIYPGTGGSNFDEKFKNRVTITADKSTSTAYMELSSLRSEDTAVYYCTRWTTGTGAYWGQGTTVTVSS VL: EIVLTQSPATLSLSPGERATLSCKSSQSLLDSGNQKNFLTWYQQKPGQAPRLLIYWASTRESGVPSRFSGSGSGTEFTLTISSLQPDDFATYYCQNDYSYPYTFGQGTKVEIKR | 2 | 2 | 7 | – |
| BAP049-hum14 (antibody, human IgG4 S228P, kappa, also called Clone No. 14) heavy: not shown light: EIVLTQSPATLSLSPGERATLSCKSSQSLLDSGNQKNFLTWYQQKPGQAPRLLIYWASTRESGVPSRFSGSGSGTDFTFTISSLEAEDAATYYCQNDYSYPYTFGQGTKVEIKRTVAAPSVFIFPPSDEQLKSGTASVVCLLNNFYPREAKVQWKVDNALQSGNSQESVTEQDSKDSTYSLSSTLTLSKADYEKHKVYACEVTHQGLSSPVTKSFNRGEC | 15 | 16 | 7 | – |
| BAP049-hum16 (antibody, human IgG4 S228P, kappa, V domains shown, also called Clone No. 16) VH: EVQLVQSGAEVKKPGESLRISCKGSGYTFTTYWMHWVRQAPGQGLEWMGNIYPGTGGSNFDEKFKNRFTISRDNSKNTLYLQMNSLRAEDTAVYYCTRWTTGTGAYWGQGTTVTVSS VL: EIVLTQSPDFQSVTPKEKVTITCKSSQSLLDSGNQKNFLTWYQQKPGQAPRLLIYWASTRESGVPSRFSGSGSGTDFTFTISSLEAEDAATYYCQNDYSYPYTFGQGTKVEIKR | 15 | 15 | 16 | – |
| BAP049-hum03 (antibody, human IgG4 S228P, kappa, V domains shown, also called Clone No. 3) VH: EVQLVQSGAEVKKPGESLRISCKGSGYTFTTYWMHWIRQSPSRGLEWLGNIYPGTGGSNFDEKFKNRFTISRDNSKNTLYLQMNSLRAEDTAVYYCTRWTTGTGAYWGQGTTVTVSS VL: DIQMTQSPSSLSASVGDRVTITCKSSQSLLDSGNQKNFLTWYQQKPGQAPRLLIYWASTRESGIPPRFSGSGYGTDFTLTINNIESEDAAYYFCQNDYSYPYTFGQGTKVEIKR | 14 | 7 | 8 | – |
| BAP049-hum13 (antibody, human IgG4 S228P, kappa, also called Clone No. 13) heavy: not shown light: DVVMTQSPLSLPVTLGQPASISCKSSQSLLDSGNQKNFLTWYQQKPGKAPKLLIYWASTRESGVPSRFSGSGSGTDFTFTISSLEAEDAATYYCQNDYSYPYTFGQGTKVEIKRTVAAPSVFIFPPSDEQLKSGTASVVCLLNNFYPREAKVQWKVDNALQSGNSQESVTEQDSKDSTYSLSSTLTLSKADYEKHKVYACEVTHQGLSSPVTKSFNRGEC | 1 | 6 | 1 | – |
